Results on 62 variants are retold here after article PMC12102759 (2025).

The labels stand for the following.
B1: AZIN2 peptide 1-16 (Antizyme inhibitor 2), 16-mer library wild type / NSP3 ADRP (ORF1ab Nsp3b ADRP, residues 1023-1192) (parent complex)
chain 1: MAGYLSESDFVMVEEG
chain 2: not shown
B2: NOTCH4 peptide 1606-1621 (Neurogenic locus notch homolog protein 4), 16-mer library wild type / NSP9 (ORF1ab Nsp9, residues 4141-4253) (parent complex)
chain 1: QGAWLGAPEPWEPLLD
chain 2: NNELSPVALRQMSCAAGTTQTACTDDNALAYYNTTKGGRFVLALLSDLQDLKWARFPKSDGTGTIYTELEPPCRFVTDTPKGPKVKYLYFIKGLNNLNRGMVLGSLAATVRLQ

The first test covers variants of B1. As to the kind of experiment: bait immobilised on MaxiSorp plates (10 µg), library pre-cleared on GST, 2 h binding at 4 °C, five washes; one round per day, days 1-4; value from days 2 and 3.
With chain 1 V11M, the screen value is 0.000364 average fractional NGS count over selection days 2 and 3 (reads of this peptide / all reads for the bait, averaged over ….

Take chain 1 V11H: the screen value was 7.39e-05 average fractional NGS count over selection days 2 and 3 (reads of this peptide / all reads for the bait, averaged over ….

In the case of chain 1 V11L, the screen value was 0.0066 average fractional NGS count over selection days 2 and 3 (reads of this peptide / all reads for the bait, averaged over ….

Regarding chain 1 V11T, the screen value was 0.000107 average fractional NGS count over selection days 2 and 3 (reads of this peptide / all reads for the bait, averaged over ….

On to chain 1 V11I, for which the screen value was 0.195 average fractional NGS count over selection days 2 and 3 (reads of this peptide / all reads for the bait, averaged over ….

Turning to chain 1 V11E, the screen value is 0.000156 average fractional NGS count over selection days 2 and 3 (reads of this peptide / all reads for the bait, averaged over ….

As to chain 1 E7K, the screen value was 0.00106 average fractional NGS count over selection days 2 and 3 (reads of this peptide / all reads for the bait, averaged over ….

As to chain 1 E15N, the screen value was 0.000739 average fractional NGS count over selection days 2 and 3 (reads of this peptide / all reads for the bait, averaged over ….

chain 1 E15P: the screen value was 7.42e-05 average fractional NGS count over selection days 2 and 3 (reads of this peptide / all reads for the bait, averaged over ….

Turning to chain 1 E15H, the screen value was 0.00102 average fractional NGS count over selection days 2 and 3 (reads of this peptide / all reads for the bait, averaged over ….

chain 1 E15T: the screen value is 0.000718 average fractional NGS count over selection days 2 and 3 (reads of this peptide / all reads for the bait, averaged over ….

Turning to chain 1 E15D, the screen value was 9.82e-05 average fractional NGS count over selection days 2 and 3 (reads of this peptide / all reads for the bait, averaged over ….

As to chain 1 E15S, the screen value is 0.00159 average fractional NGS count over selection days 2 and 3 (reads of this peptide / all reads for the bait, averaged over ….

For the variant chain 1 G16F, the screen value was 0.000171 average fractional NGS count over selection days 2 and 3 (reads of this peptide / all reads for the bait, averaged over ….

Turning to chain 1 G16S, the screen value is 0.000137 average fractional NGS count over selection days 2 and 3 (reads of this peptide / all reads for the bait, averaged over ….

With chain 1 G16H, the screen value is 0.000328 average fractional NGS count over selection days 2 and 3 (reads of this peptide / all reads for the bait, averaged over ….

In the case of chain 1 G16D, the screen value was 0.00105 average fractional NGS count over selection days 2 and 3 (reads of this peptide / all reads for the bait, averaged over ….

In the case of chain 1 G16V, the screen value is 0.000213 average fractional NGS count over selection days 2 and 3 (reads of this peptide / all reads for the bait, averaged over ….

With chain 1 G16N, the screen value was 0.00027 average fractional NGS count over selection days 2 and 3 (reads of this peptide / all reads for the bait, averaged over ….

Regarding chain 1 G16Q, the screen value was 0.000216 average fractional NGS count over selection days 2 and 3 (reads of this peptide / all reads for the bait, averaged over ….

As for chain 1 G16P, the screen value is 9.14e-05 average fractional NGS count over selection days 2 and 3 (reads of this peptide / all reads for the bait, averaged over ….

For the variant chain 1 G16A, the screen value was 0.00182 average fractional NGS count over selection days 2 and 3 (reads of this peptide / all reads for the bait, averaged over ….

As for chain 1 G16L, the screen value is 0.000127 average fractional NGS count over selection days 2 and 3 (reads of this peptide / all reads for the bait, averaged over ….

For chain 1 G16E, the screen value is 0.000344 average fractional NGS count over selection days 2 and 3 (reads of this peptide / all reads for the bait, averaged over ….

On to chain 1 D9N, for which the screen value was 0.0514 average fractional NGS count over selection days 2 and 3 (reads of this peptide / all reads for the bait, averaged over ….

Turning to chain 1 D9Q, the screen value was 0.000191 average fractional NGS count over selection days 2 and 3 (reads of this peptide / all reads for the bait, averaged over ….

In the case of chain 1 D9K, the screen value was 0.00156 average fractional NGS count over selection days 2 and 3 (reads of this peptide / all reads for the bait, averaged over ….

Take chain 1 D9G: the screen value is 0.000412 average fractional NGS count over selection days 2 and 3 (reads of this peptide / all reads for the bait, averaged over ….

Take chain 1 G3R: the screen value is 7.43e-05 average fractional NGS count over selection days 2 and 3 (reads of this peptide / all reads for the bait, averaged over ….

Turning to chain 1 G3D, the screen value is 0.00677 average fractional NGS count over selection days 2 and 3 (reads of this peptide / all reads for the bait, averaged over ….

On to chain 1 G3M, for which the screen value was 0.000375 average fractional NGS count over selection days 2 and 3 (reads of this peptide / all reads for the bait, averaged over ….

chain 1 G3K: the screen value was 0.00086 average fractional NGS count over selection days 2 and 3 (reads of this peptide / all reads for the bait, averaged over ….

As for chain 1 G3Q, the screen value is 0.000537 average fractional NGS count over selection days 2 and 3 (reads of this peptide / all reads for the bait, averaged over ….

For chain 1 G3H, the screen value is 8.37e-05 average fractional NGS count over selection days 2 and 3 (reads of this peptide / all reads for the bait, averaged over ….

For the variant chain 1 V13T, the screen value was 8.71e-05 average fractional NGS count over selection days 2 and 3 (reads of this peptide / all reads for the bait, averaged over ….

For the variant chain 1 V13M, the screen value was 0.000618 average fractional NGS count over selection days 2 and 3 (reads of this peptide / all reads for the bait, averaged over ….

Take chain 1 V13H: the screen value was 0.00368 average fractional NGS count over selection days 2 and 3 (reads of this peptide / all reads for the bait, averaged over ….

chain 1 V13I: the screen value was 0.00423 average fractional NGS count over selection days 2 and 3 (reads of this peptide / all reads for the bait, averaged over ….

Consider chain 1 Y4W, for which the screen value was 0.00197 average fractional NGS count over selection days 2 and 3 (reads of this peptide / all reads for the bait, averaged over ….

As for chain 1 S8T, the screen value is 0.00377 average fractional NGS count over selection days 2 and 3 (reads of this peptide / all reads for the bait, averaged over ….

On to chain 1 S8M, for which the screen value is 0.000908 average fractional NGS count over selection days 2 and 3 (reads of this peptide / all reads for the bait, averaged over ….

On to chain 1 S8H, for which the screen value is 6.7e-05 average fractional NGS count over selection days 2 and 3 (reads of this peptide / all reads for the bait, averaged over ….

In the case of chain 1 M12A, the screen value is 0.00221 average fractional NGS count over selection days 2 and 3 (reads of this peptide / all reads for the bait, averaged over ….

chain 1 M12N: the screen value was 0.00321 average fractional NGS count over selection days 2 and 3 (reads of this peptide / all reads for the bait, averaged over ….

Regarding chain 1 M12H, the screen value was 0.000156 average fractional NGS count over selection days 2 and 3 (reads of this peptide / all reads for the bait, averaged over ….

Take chain 1 M12S: the screen value was 0.000927 average fractional NGS count over selection days 2 and 3 (reads of this peptide / all reads for the bait, averaged over ….

Consider chain 1 M12Y, for which the screen value was 0.000582 average fractional NGS count over selection days 2 and 3 (reads of this peptide / all reads for the bait, averaged over ….

As for chain 1 E14Q, the screen value is 0.00039 average fractional NGS count over selection days 2 and 3 (reads of this peptide / all reads for the bait, averaged over ….

As to chain 1 E14N, the screen value was 0.000346 average fractional NGS count over selection days 2 and 3 (reads of this peptide / all reads for the bait, averaged over ….

As to chain 1 E14M, the screen value was 0.000122 average fractional NGS count over selection days 2 and 3 (reads of this peptide / all reads for the bait, averaged over ….

As for chain 1 E14R, the screen value is 0.000473 average fractional NGS count over selection days 2 and 3 (reads of this peptide / all reads for the bait, averaged over ….

Take chain 1 E14S: the screen value was 0.000258 average fractional NGS count over selection days 2 and 3 (reads of this peptide / all reads for the bait, averaged over ….

chain 1 E14P: the screen value is 0.0011 average fractional NGS count over selection days 2 and 3 (reads of this peptide / all reads for the bait, averaged over ….

Variants of B2 are the subject of another test. Described as above.
Consider chain 1 QGAWLAAPEPWEPLLD [chain 1 G6A], for which the screen value is 9.6e-05 average fractional NGS count over selection days 2 and 3 (reads of this peptide / all reads for the bait, averaged over ….

On to chain 1 QGAWLPAPEPWEPLLD [chain 1 G6P], for which the screen value was 0.00151 average fractional NGS count over selection days 2 and 3 (reads of this peptide / all reads for the bait, averaged over ….

On to chain 1 QGAWLGAPEPWWPLLD [chain 1 E12W], for which the screen value is 0.0479 average fractional NGS count over selection days 2 and 3 (reads of this peptide / all reads for the bait, averaged over ….

Take chain 1 QGAWLGAPEPWYPLLD [chain 1 E12Y]: the screen value is 0.00153 average fractional NGS count over selection days 2 and 3 (reads of this peptide / all reads for the bait, averaged over ….

As to chain 1 QGAWLGAPEPWLPLLD [chain 1 E12L], the screen value was 0.00277 average fractional NGS count over selection days 2 and 3 (reads of this peptide / all reads for the bait, averaged over ….

For chain 1 QGAWLGAPEPWGPLLD [chain 1 E12G], the screen value is 0.00333 average fractional NGS count over selection days 2 and 3 (reads of this peptide / all reads for the bait, averaged over ….

As for chain 1 QGAWLGAPEPWQPLLD [chain 1 E12Q], the screen value was 0.00173 average fractional NGS count over selection days 2 and 3 (reads of this peptide / all reads for the bait, averaged over ….

For chain 1 QGAWLGAPEPWTPLLD [chain 1 E12T], the screen value is 0.00258 average fractional NGS count over selection days 2 and 3 (reads of this peptide / all reads for the bait, averaged over ….

Take chain 1 QGAWLGAPEPWHPLLD [chain 1 E12H]: the screen value is 8.76e-05 average fractional NGS count over selection days 2 and 3 (reads of this peptide / all reads for the bait, averaged over ….
